According to patent US20130266568A1 (Hoffmann-La Roche, published 2013):

Assays:
[1] = molecular target: T1, Her3 on Her3-expressing, cMet negative T47D cells / Her3-positive cancer cells (UniProt P21860 20-1342, limits assumed); experiment: FACS on live T47D cells (cMet-/Her3+); x axis fluorescence (log), y axis % of Max; antibody concentration not shown
T1 construct: whole, on cells

[2] = molecular target: T2, cMet (antigen in the SPR measurements) (UniProt P08581 25-932, limits assumed); experiment: SPR
T2 sequence (P08581 25-932 limits assumed): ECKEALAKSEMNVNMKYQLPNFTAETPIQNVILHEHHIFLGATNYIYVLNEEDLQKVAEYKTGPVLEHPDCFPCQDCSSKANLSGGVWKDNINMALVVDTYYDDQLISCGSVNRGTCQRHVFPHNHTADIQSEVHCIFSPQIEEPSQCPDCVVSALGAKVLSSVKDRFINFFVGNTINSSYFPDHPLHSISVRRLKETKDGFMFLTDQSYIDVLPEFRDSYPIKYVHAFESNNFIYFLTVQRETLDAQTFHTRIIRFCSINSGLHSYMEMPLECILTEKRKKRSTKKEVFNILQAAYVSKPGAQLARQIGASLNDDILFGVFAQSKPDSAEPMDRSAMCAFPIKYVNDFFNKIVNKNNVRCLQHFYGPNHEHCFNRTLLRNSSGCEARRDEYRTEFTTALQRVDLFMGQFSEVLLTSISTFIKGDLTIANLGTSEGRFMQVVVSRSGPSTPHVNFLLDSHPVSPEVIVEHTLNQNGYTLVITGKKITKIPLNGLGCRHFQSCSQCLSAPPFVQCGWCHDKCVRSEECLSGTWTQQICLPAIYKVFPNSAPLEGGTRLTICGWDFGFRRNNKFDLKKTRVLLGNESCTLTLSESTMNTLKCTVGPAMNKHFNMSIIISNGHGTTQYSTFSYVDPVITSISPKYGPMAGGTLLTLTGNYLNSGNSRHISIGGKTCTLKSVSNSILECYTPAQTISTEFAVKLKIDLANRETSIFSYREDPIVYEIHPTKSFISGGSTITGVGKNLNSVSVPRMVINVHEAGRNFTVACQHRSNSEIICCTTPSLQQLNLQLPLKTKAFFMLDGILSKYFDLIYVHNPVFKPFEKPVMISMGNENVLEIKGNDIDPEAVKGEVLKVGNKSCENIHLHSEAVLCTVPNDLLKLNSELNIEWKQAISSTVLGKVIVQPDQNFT

[3] = molecular target: T2, cMet (antigen in the SPR measurements); experiment: SPR, KD uncleaved against KD after protease cleavage
[4] = molecular target: T2, cMet (antigen in the SPR measurements); experiment: SPR, cleaved against restricted form
[5] = molecular target: T2, cMet (antigen in the SPR measurements); experiment: SPR; after protease (MMP2/9) cleavage; dsFv unleashed
[6] = molecular target: HER3 (antigen in the SPR measurements) (UniProt P21860 20-643, limits assumed); experiment: SPR
HER3 (antigen in the SPR measurements), sequence (P21860 20-643 limits assumed): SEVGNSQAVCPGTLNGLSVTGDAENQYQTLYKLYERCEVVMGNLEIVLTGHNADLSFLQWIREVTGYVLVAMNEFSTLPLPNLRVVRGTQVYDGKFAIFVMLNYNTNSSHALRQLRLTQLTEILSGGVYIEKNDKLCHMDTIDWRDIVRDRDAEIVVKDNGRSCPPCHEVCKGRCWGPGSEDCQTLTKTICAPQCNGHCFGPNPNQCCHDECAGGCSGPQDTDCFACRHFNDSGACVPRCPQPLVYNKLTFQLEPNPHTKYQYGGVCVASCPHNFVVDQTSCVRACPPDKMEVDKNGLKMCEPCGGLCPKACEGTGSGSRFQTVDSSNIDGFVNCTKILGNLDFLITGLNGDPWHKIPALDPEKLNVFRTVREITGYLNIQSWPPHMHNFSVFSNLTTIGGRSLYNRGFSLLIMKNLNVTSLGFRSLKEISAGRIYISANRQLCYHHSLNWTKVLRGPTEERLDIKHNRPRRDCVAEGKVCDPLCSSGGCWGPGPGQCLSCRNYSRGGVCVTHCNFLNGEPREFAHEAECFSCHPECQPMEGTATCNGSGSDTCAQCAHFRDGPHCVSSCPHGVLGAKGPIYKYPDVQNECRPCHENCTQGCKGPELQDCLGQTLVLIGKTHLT

[7] = molecular target: T2, cMet (antigen in the SPR measurements); experiment: SPR; not cleaved; dsFv sterically restricted

T1 sequence (P21860 20-1342 limits assumed, stated change not applied): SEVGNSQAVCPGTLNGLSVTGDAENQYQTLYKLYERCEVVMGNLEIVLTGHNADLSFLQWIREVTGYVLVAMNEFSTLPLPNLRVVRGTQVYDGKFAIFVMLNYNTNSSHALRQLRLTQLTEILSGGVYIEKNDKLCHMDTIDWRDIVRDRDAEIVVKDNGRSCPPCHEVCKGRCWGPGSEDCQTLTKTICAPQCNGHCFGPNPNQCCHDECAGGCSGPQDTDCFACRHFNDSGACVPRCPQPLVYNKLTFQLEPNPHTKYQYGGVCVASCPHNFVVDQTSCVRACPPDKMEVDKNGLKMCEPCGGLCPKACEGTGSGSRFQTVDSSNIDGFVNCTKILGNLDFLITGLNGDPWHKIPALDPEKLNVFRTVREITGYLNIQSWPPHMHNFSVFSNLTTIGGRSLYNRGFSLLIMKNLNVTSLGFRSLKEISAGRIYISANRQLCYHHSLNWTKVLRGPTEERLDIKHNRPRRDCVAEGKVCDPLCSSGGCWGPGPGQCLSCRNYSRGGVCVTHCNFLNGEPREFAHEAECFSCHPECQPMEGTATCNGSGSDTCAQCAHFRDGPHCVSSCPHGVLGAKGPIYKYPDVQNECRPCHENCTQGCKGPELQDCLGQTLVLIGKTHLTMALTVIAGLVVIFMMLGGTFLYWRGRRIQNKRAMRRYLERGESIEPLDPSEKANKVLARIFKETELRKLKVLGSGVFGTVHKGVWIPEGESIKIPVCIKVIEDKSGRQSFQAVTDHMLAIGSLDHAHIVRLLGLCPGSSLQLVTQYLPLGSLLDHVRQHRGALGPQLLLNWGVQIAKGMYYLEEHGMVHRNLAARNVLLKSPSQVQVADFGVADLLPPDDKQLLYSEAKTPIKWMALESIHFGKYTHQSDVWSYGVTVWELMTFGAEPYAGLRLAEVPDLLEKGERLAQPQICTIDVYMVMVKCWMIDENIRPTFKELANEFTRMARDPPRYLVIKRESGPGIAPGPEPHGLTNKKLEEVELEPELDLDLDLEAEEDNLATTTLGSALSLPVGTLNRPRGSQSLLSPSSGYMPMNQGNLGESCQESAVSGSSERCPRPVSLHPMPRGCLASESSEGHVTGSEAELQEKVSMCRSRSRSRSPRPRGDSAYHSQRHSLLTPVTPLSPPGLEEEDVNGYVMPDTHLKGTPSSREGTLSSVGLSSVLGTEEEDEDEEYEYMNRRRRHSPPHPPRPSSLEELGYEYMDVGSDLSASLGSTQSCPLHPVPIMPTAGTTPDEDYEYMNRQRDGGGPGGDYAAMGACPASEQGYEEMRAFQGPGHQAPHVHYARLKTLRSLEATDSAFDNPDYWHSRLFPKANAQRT

Binder	binding result [1]	Kd [2] [nM]	koff [2] [s⁻¹]	kon [2] [M⁻¹ s⁻¹]	reduced binding affinity as compared to after the protease cleavage [3] [times]	fold improvement of affinity by MMP processing [4] [fold]	Kd [5] [nM]	Kd [6] [nM]	koff [6] [s⁻¹]	kon [6] [M⁻¹ s⁻¹]	Kd [7] [nM]
Her3/MetSS_KHSS_PreSci (protease cleavage site = prescission cleavage site), not cleaved (restricted form) (bispecific antibody, human IgG1, kappa, Trivalent: whole anti-Her3 IgG (knobs-into-holes) with one disulfide-stabilized anti-cMet Fv tethered to both CH3 C-termini; Constructs were designed with a leader peptide) heavy 1: not shown heavy 2: not shown light: DIQMTQTTSSLSASLGDRVTISCRARQDISNYLNWYQRKPDGTVKLLIYYTSRLHSGVPSRFSGSGSGTDYSLTISNLEQEDIATYFCQQGNTFPWTFGGGTKLEIKRTVAAPSVFIFPPSDEQLKSGTASVVCLLNNFYPREAKVQWKVDNALQSGNSQESVTEQDSKDSTYSLSSTLTLSKADYEKHKVYACEVTHQGLSSPVTKSFNRGEC	binds										
Her3/MetSS_KHSS_M3 (MMP 2 and 9 cleavage site - variant 3), not cleaved (bispecific antibody, human IgG1, kappa, Trivalent anti-Her3 IgG with restricted anti-cMet dsFv) heavy 1: not shown heavy 2: not shown light: DIQMTQTTSSLSASLGDRVTISCRARQDISNYLNWYQRKPDGTVKLLIYYTSRLHSGVPSRFSGSGSGTDYSLTISNLEQEDIATYFCQQGNTFPWTFGGGTKLEIKRTVAAPSVFIFPPSDEQLKSGTASVVCLLNNFYPREAKVQWKVDNALQSGNSQESVTEQDSKDSTYSLSSTLTLSKADYEKHKVYACEVTHQGLSSPVTKSFNRGEC		88.6	0.000263	2970	17						
Her3/MetSS_KHSS_M1 after protease cleavage (bispecific antibody, HC2 is cut in the connector; the VL fragment stays disulfide-linked to VH) heavy 1: not shown heavy 2: not shown MLSQSGGGGSGGGGSDIQMTQSPSSLSASVGDRVTITCKSSQSLLYTSSQKNYLAWYQQKPGKAPKLLIYWASTRESGVPSRFSGSGSGTDFTLTISSLQPEDFATYYCQQYYAYPWTFGCGTKVEIKR light: DIQMTQTTSSLSASLGDRVTISCRARQDISNYLNWYQRKPDGTVKLLIYYTSRLHSGVPSRFSGSGSGTDYSLTISNLEQEDIATYFCQQGNTFPWTFGGGTKLEIKRTVAAPSVFIFPPSDEQLKSGTASVVCLLNNFYPREAKVQWKVDNALQSGNSQESVTEQDSKDSTYSLSSTLTLSKADYEKHKVYACEVTHQGLSSPVTKSFNRGEC			0.00015	21200		> 5	7.08				
Her3/MetSS_KHSS_M3 after protease cleavage (bispecific antibody, HC2 is cut in the connector; the VL fragment stays disulfide-linked to VH) heavy 1: not shown heavy 2: not shown IAGQSGGGGSGGGGSDIQMTQSPSSLSASVGDRVTITCKSSQSLLYTSSQKNYLAWYQQKPGKAPKLLIYWASTRESGVPSRFSGSGSGTDFTLTISSLQPEDFATYYCQQYYAYPWTFGCGTKVEIKR light: DIQMTQTTSSLSASLGDRVTISCRARQDISNYLNWYQRKPDGTVKLLIYYTSRLHSGVPSRFSGSGSGTDYSLTISNLEQEDIATYFCQQGNTFPWTFGGGTKLEIKRTVAAPSVFIFPPSDEQLKSGTASVVCLLNNFYPREAKVQWKVDNALQSGNSQESVTEQDSKDSTYSLSSTLTLSKADYEKHKVYACEVTHQGLSSPVTKSFNRGEC		5.2	0.000105	20100		> 5					
Her3/MetSS_KHSS_M2 (MMP 2 and 9 cleavage site - variant 2), not cleaved (bispecific antibody, human IgG1, kappa, Trivalent anti-Her3 IgG with restricted anti-cMet dsFv) heavy 1: not shown heavy 2: not shown light: DIQMTQTTSSLSASLGDRVTISCRARQDISNYLNWYQRKPDGTVKLLIYYTSRLHSGVPSRFSGSGSGTDYSLTISNLEQEDIATYFCQQGNTFPWTFGGGTKLEIKRTVAAPSVFIFPPSDEQLKSGTASVVCLLNNFYPREAKVQWKVDNALQSGNSQESVTEQDSKDSTYSLSSTLTLSKADYEKHKVYACEVTHQGLSSPVTKSFNRGEC		114	0.000417	3650	16			1.92	0.000324	169000	
Her3/MetSS_KHSS_U (protease cleavage site = uPA cleavage site), not cleaved (bispecific antibody, human IgG1, kappa, Trivalent anti-Her3 IgG with restricted anti-cMet dsFv) heavy 1: not shown heavy 2: not shown light: DIQMTQTTSSLSASLGDRVTISCRARQDISNYLNWYQRKPDGTVKLLIYYTSRLHSGVPSRFSGSGSGTDYSLTISNLEQEDIATYFCQQGNTFPWTFGGGTKLEIKRTVAAPSVFIFPPSDEQLKSGTASVVCLLNNFYPREAKVQWKVDNALQSGNSQESVTEQDSKDSTYSLSSTLTLSKADYEKHKVYACEVTHQGLSSPVTKSFNRGEC		20	0.000193	9670	6			2.34	0.000372	159000	
Her3/MetSS_KHSS_M2 after protease cleavage (MMP-2 processed) (bispecific antibody, HC2 is cut in the connector; the VL fragment stays disulfide-linked to VH) heavy 1: not shown heavy 2: not shown LWAQSGGGGSGGGGSDIQMTQSPSSLSASVGDRVTITCKSSQSLLYTSSQKNYLAWYQQKPGKAPKLLIYWASTRESGVPSRFSGSGSGTDFTLTISSLQPEDFATYYCQQYYAYPWTFGCGTKVEIKR light: DIQMTQTTSSLSASLGDRVTISCRARQDISNYLNWYQRKPDGTVKLLIYYTSRLHSGVPSRFSGSGSGTDYSLTISNLEQEDIATYFCQQGNTFPWTFGGGTKLEIKRTVAAPSVFIFPPSDEQLKSGTASVVCLLNNFYPREAKVQWKVDNALQSGNSQESVTEQDSKDSTYSLSSTLTLSKADYEKHKVYACEVTHQGLSSPVTKSFNRGEC		7.14	0.000141	19700		> 5		1.85	0.000327	177000	
Her3/MetSS_KHSS_M1 (MMP 2 and 9 cleavage site - variant 1), not cleaved (bispecific antibody, human IgG1, kappa, Trivalent anti-Her3 IgG with restricted anti-cMet dsFv) heavy 1: not shown heavy 2: not shown light: DIQMTQTTSSLSASLGDRVTISCRARQDISNYLNWYQRKPDGTVKLLIYYTSRLHSGVPSRFSGSGSGTDYSLTISNLEQEDIATYFCQQGNTFPWTFGGGTKLEIKRTVAAPSVFIFPPSDEQLKSGTASVVCLLNNFYPREAKVQWKVDNALQSGNSQESVTEQDSKDSTYSLSSTLTLSKADYEKHKVYACEVTHQGLSSPVTKSFNRGEC			0.000374	151	350						2480
